test: soluble fraction after stress (log2 fold change); higher = more stays soluble; pooled small domains, quantitative proteomics; conditions: stress: 75 degC
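Note: 20 min heating vs room temperature control held 20 min.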

Sequence | soluble fraction (log2)
HMEAELNSLVKTYENMKPKAAAQVFEELDMDVLLDVVERMKEKKLAPILAQVTPTRAKEITYELTQRR | -0.102
HMEAFDYLGRRTRDLLERQGWTTVPLVRDAYLAVPGGERLLQVPGFGRKSLREVRRWLWLQIGDPRFE | -1.25
HMEAIYKKNKNLIHTVIRDNFPFLIDTADYEDAFQEGSIGLIRAIDRFDDGLEYKFSSYAYTAIRNQIA | -1.15
HMEALGLSPRQVDVLRLLVEGRSNKMIMRELELSESTVKTHLQAIFRRLGVSSRTQAVVAAARLGL | -1.2
HMEALSAREIEILQALETGASNRELAKMLFISEATVKTHLVHIYQKLGVGTRTAAITEARERRV | -2.1
HMEANAYFDAYPDVAAEWARLSGSDEGKATLSAIGVTTPQQFAQYHYTTFGSKENRNAPVGYTP | 0.072
HMEANPLTDREKEVLELVADGKNTKEIAQELSIKSGTVRNYISMILEKLEVKNRIEAITRSKEKGWF | -0.161
HMEAPMPIFWRPQFRIGHDDIDADHRYLILLINTVELVLRFPDDPRNVELALTELRRYAEDHFEREER | -0.0783
HMEAQAHYDAIYKAHPNADSIAQSAEFKAWVDAQPSVVRNAYWQLFDPKEGGTAEQIVEVFDAFVKSS | 0.327
HMEDDIRSSIRTLDQFISKNQITLSKDVKNYILQLLSNDRMVTINELEKIKIYYDSNENIDLDTVKILLN | -0.796
HMEDEEILNEIRHTEQYVYYFGNYIMEHHVSRGLSKEKVIASLARELQIEIADIREDFDGMIEQIKTNILN | -0.329
HMEDESSIERYLGSGAIKGIGPSLAARIVKKFGKDTFRIIEQEPERLAEIKGISERKAMEISTLMEEK | -0.056
HMEDGRLPPPGTVLRREYKGRAVFVRVLPKGFEFEGEVYRSLSAIAAKVTGSHWNGFRFFGLHE | -3.01
HMEDHMVVFGKGGRITRLPDKATVLEYLDAANFFASRSSVVKVNGKLASLDQTLRDGDSIEIVD | -0.407
HMEDINAVLAENLRRLRESRRLSLDAVARLTGVSKSMLGQIERGEVNPTVSTMWKIAGGLKVNFTALFRRE | -3.79
HMEDIQPSVIFQNNMIDGFKKFGVSFLQNRRNVNVNTLNGLASAGTYPKWQQLLVNKISYIDMLLSTGG | 0.0954
HMEDKIIVTVPGEYHLERIDRFLAANLEEDLSRSLIQRYIRENLITVNGEAVRANYKVKTDDEILITFPQ | -0.842
HMEDLAERLDNLSTMYAKMDPVRAAQVLLESKNKSENIEVLKRLKPKSLGLILENMPPREAYDYVSELQ | 0.0743
HMEDLGYVKVASQTAAIRKSAAVQAGQIGTVHEGETYRYLGEEEGWYLVEYNGQKAYISWDDGEL | -0.323
HMEDMMKALLDVVRAQHTATEGSEERPFDINDIIDMALNITGRPEEPEEQQELSDTIQKLAESLAPDIFP | -0.424
HMEDNKLKNEIKNELVSHLEKPYSVEDLADALKYHGSAAFKLIVQELAILERERAVVVTHDGNFKINSS | -1.11
HMEDPAVYYKILQIPPDASLSEIHRAFEKITSAWDPERYPHISSWKETSAKKLQEIRNAYEKLLILRETG | -0.269
HMEDPFLWVEKLGSSDWIEREESAEKLLEAGEASVEALRTALTHPDLEVRERVRELLSVISPL | 0.409

Sequence | soluble fraction (log2)
HMEDPRVTEIKNLQQDLAKKFKPTQGPASASDAVERVTAITTVMTKVAALPEDLRSEAMQPGKKM | -0.327
HMEDQFWQNRAEMALASARRAGRIVTYAEMADAADIPAPQRIHKLTLWLEATMRQDHASGQPLRAALV | 0.0883
HMEDQITNQQFTMTKQSILDLLVKKSYPPYELANELHLKKEEVLPIIRFLIAENEIHFKDGMLHLPH | -1.01
HMEDQLDSLKDIIYDYLENNELYYNDLQEFKKIIIENMEFIHPNLNHKLIDNNFFKLINFKLEYNF | -0.152
HMEDSSSILNRMRKLIALLNRASEAYYKENKEIISNFEYDRLYDELLGLESRSNTVLSGSPTYKV | -1.87
HMEDTFEYPVSVNGKLRFKIELPVSMEKDEIRNIVLNDERAKKWLATGTLTNLIVVPNRIINIVIK | -0.528
HMEDTSTLSIKHKIKELINQESPQAILSDDKLVELLAAQGIKIARRTIAKYRETMNIPTSAERKRQKRPP | 0.0599
HMEDVTLSLVVGEDLDGERLDVFLTWKLDRTRSQVQALIRDGKVRLEQGQRARPSMVVRSGMGISVSLEPR | -2.15
HMEDYYKILGVSKDASIDDIKKSYRKLSLQNHPDRNKSPQASENFAKINSAYEVLSDQRKKRQYDMQQSM | -0.073
HMEEAQWEFKWENTDSAEIHGPHSSSEMLKWQENSFFAKGVYVRKVGGDTTDFTDGKRIDFDLY | -0.705
HMEEDPILVAQRFLNIFRQLHIFDQQRREEFNSMILALPPEIRGTFGVLPGGSVLQEYVDELEISKGMA | -1.11
HMEEDPVISQAQRQALFKLAHDHFGQEEGNKVILRLIGEHGLRSTTNMTASVYKTVTDALIQVIESMVEG | -0.45
HMEEEDELALFLREERKNYDLTLTDVHEKTGIPQKVLKEFQWGDAQLTDRQRYTLTQYVEEAREYFQENA | 0.161
HMEEEVKVPKIKGLTEAEAKAKLKSEGLESGTARSAYSDTVEEGHIISQSIQEGTKVPKGTAVSYEVSKGK | 0.149
HMEEGKVKRMAMDMVDAFYDKVSAMVDDNNDLGRSVVDAWDDEEENPPEYMLDDETRAILVNAGKIEPE | 0.298
HMEEHSLRKQEMLRIIEALEQLTPKEKTVVVLYYFKGVLFKDIAMLLDVTEGRISQLHTAAMGRLKKLMD | -0.14
HMEEIDLTPAEEILNKLPDNSRGYLIPTLNKIQNAYRFLPDPAMELLMEFFNVSRAEIFGVISFYPQLMI | -0.127
HMEEIPYGVISAKAGAAAYDYIKKSIELGIEKKIDGVATAPIQKEAIHMAGISYIGHTEMYQGIT | 0.178
HMEEKEIGQTLSVKIRENVLSKLDMTRDLEDEEVKHIIEHEIWLAAKKHYISLEERNSIKRGIFNSL | -0.895
HMEELELTIDGEMVGRIDKQLGHHFDQFSRSQIQHWIEDGHVLVNGKQVKPKYKLLVGDHVQIIPEEPQK | 0.261
HMEELIIQEELANKRLDIAISLLFPELTRAHAQKLIKEGSVLVDGKPRKASYPLTAGKRLSVTLPEPE | -0.172
HMEELPVLHLKHVVVEGESLWKLAEQYLNDGTRWQEIYMLNRENISNPDLIREGQELNIQFLQGE | -0.382
HMEENIKKDIEVPNIEGLTIDEAKKRLKEVNLNISIEDMEEKEGTEIITQQLPKAGIKVKEGVAIIAY | 0.227

Sequence | soluble fraction (log2)
HMEEPEFEPYVVRLTAIALNVRTGPGTQYPVAMVIRGGGAFTIVAEENGFGLLKSGAGWIMLQHTERV | -2.61
HMEEQELQLIQFPIASGSAWAGKAVRELILPPETLLVMLIRGTETMIPKGDTMVQEGDTAVLSASAYRDD | -0.472
HMEEQKYEYHLGDVVYLGVDKYEILGITNNIVTLYDPEFPLLNKQLDFDEFEKRVKDNYANEHLKVT | -0.324
HMEERDMKGSISDLVERYADQLTDEQLEEIVLGIKNGLLEEDVKSYFFLPAEDMRRIRTALEQVR | 0.0219
HMEESEMIAFATVAHRIVGKPVEAVMRSYRNRDNIPADIAAIVSSKFTFSVTMAEASYRNPKKSYQVNSII | 0.275
HMEETLLLRESVRSALAMLAPTLRITLEMYVYRQLSPTEIALRSGVSISMVRRRLGYGLYKLRTQLIDA | -0.121
HMEFEIGQEDSKKSVKQFLYNTLRLSHGQVTALKRQERGILLNGERVFVTALLQEGDRLSLLLE | -1.7
HMEFFIIDHNGQQAGPFSFDQLVQKGISPETLVWKQGMADWNPAWKVEELKAVLEAVEANQSNQKAQ | ≥ 1.04
HMEFGEVLAQLRQKRHISQAELGRAIFVSGGTISNYEKGVHFPDVEKLLLLADYFNVTTDYLLGRT | -2.65
HMEFNQAVQDVNELSMQYAKSDVLWPEFEPKVLAFAKNELSQMPPNQWKFALQTFYNGLKQAA | -0.576
HMEFPLSPHQYSVLRLMAQGLSNKQIAERLFLSENTVKGYVQEVLRRLGARNRLEAVMIANRRGWL | -0.316
HMEFPYISGVDVGTISNKEFARFETTKASDIVIALDKSGIPFSARFGDSEIVLTYDGSYKEEVEEIIAKV | 0.172
HMEFSYMDQGLERYRAFLETHGHGNVPESYHELKLVNFVAHIRKLYRMNLLSEERRRALDEAGFVF | -2.5
HMEFVEERRNRMLDYIGENKRADVPELARHFDVTEVTIRRDLLILEQDGKLIRTHGGAMINR | -0.536
HMEGDKEIPNVIGKSINDAKKILEQAGLKLGEVKKVNDSSVAKNVVLSTNPNAGTKVSAGDAVSITVAEG | 0.106
HMEGGLIMDRIEKGLQSGVMPDLRGLNLKDALYLLESYVQVQVIGSGGVIKQSIKTGDKFIMGSVIKLEL | -0.138
HMEGLATRLRFLRQARGLSYHALARLSGVTHTALHQIEAGKNIPGLDTAEKIAMALDVDPRWFAYGRGDPS | -3.18
HMEGPALKVWKARYLRAAILEQLLSDRWDDRGGQPIRVVVNEPTNSLLIRIPRHLWPEAEKLLQELDQR | -2.34
HMEGTEILVNIRKGMTKEEIASLLVSKGLVEDKNTFLVQTALYTSDRYPIQPGSYTLNTAQTPEEMLAVMT | -0.0935
HMEGVNLTVQEAKQMAAIIAPLLKQGQSPYQIVTNHPELGISEKTLYNYIENDVFHEIAGITVMDL | -0.819
HMEHIVNELDRKVIDYLQSHYDAKLNDIAQGIGVSKATATKSIRKLVQTGIVHVVGSSGTGTSYNLTE | -0.465
HMEHVVFEVTESGELENNTAVKHVLNSFNNKSLNLAIDDFGTGYSNLRYIRDMMFGIIKIDRLFIKDINES | 0.324
HMEIDFDKINSIFNDANKLYEEGDYFEANNLYKNIVSSNIISKDLYYNLGLSYAKIGSNGYAILWYERALN | -0.0259
